Data taken from patent US20180044415A1 (AbbVie / Abbott, published 2018).

T1: human DLL3 (immobilized human DLL3 or h293-hDLL3 cells) (human, UniProt Q9NYJ7 27-492, limits assumed)
T1 construct: the sentence says 'immobilized human DLL3 or h293-hDLL3 cells'
T1 sequence: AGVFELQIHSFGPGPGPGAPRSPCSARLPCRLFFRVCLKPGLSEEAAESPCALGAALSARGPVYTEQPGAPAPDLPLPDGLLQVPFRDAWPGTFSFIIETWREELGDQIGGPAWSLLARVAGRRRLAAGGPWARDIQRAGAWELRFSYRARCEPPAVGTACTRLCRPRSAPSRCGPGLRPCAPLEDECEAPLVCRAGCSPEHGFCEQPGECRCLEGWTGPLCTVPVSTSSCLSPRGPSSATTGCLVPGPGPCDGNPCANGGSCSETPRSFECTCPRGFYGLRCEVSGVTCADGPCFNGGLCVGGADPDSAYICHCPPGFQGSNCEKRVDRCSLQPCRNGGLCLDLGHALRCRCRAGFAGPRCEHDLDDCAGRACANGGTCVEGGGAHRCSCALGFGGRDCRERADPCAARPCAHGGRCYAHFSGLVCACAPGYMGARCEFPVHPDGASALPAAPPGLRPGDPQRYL

B1: SC16.45 (antibody, V domains shown)
VH: QVQLQQSGADLVRPGTSVKVSCKASGYSFTNYLIEWVKQRPGQGLEWIGVINPGSGGTHYNEKFKDKAVLTADKSSTTAHMQLSSLTSDDSAVYFCARSPYDYNDGAMDYWGQGTSVTVSS
VL: EIQMTQSPSSMSASLGDRITITCQATQDIVKNLNWYQQKPGKPPSFLIYYATELAEGVPARFSGSGSGSDYSLTISNLESEDFADYHCLQFYEFPFTFGAGTKLELK
notes: murine mAb; variable regions only
B2: SC16.30 (antibody, V domains shown)
VH: QVTLKESGPGILQPSQTLSLTCSFSGFSLSTSGMGVGWIRQPSGKGLEWLAHIWWDDVKRYKPALKSRLTVSKDTSSNQVFLKIATVDAADTGTYYCARIVDGHPPFAYWGQGTLVTVSA
VL: QIVLTQSPTIMSASLGERVTMTCTASSSVTSSYLHWYQQKPGSSPKLWIYSTSNLASGVPARFSGSGSGTSYSLTISSMEAEDAATYYCHQFHRSPFTFGSGTKLEIK
notes: as for B1
B3: SC16.29 (antibody, V domains shown)
VH: QVQLQQSGAELARPGASVKLSCKASGYTFTDQYINWVKQRTGQGLEWIGEIYPGRGNTYYNEKFKGKATLTADKSSSTAYMQLSSLTSEDSAVYFCAREDGGYDDAWFAYWGQGTLVTVSA
VL: QIVLTQSPAIMSASPGEKVTITCSASSSVSYMHWFQQKPGTSPKLWIYTTSNLASGVPARFSGSGSGTSYSLTVSRMEAEDAATYYCQQRSLYPYTFGGGTKVEIK
notes: as for B1
B4: SC16.35 (antibody, V domains shown)
VH: DVQLQESGPGLVKPSQSLSLTCTVTGYSITSDYAWNWIRQFPGNKLEWMGYISYSGSTSYNPSLKSRISITRDTSKNQFFLQLNSVTTEDTATYYCARFYYGSSYAMDYWGQGTSVTVSS
VL: DIQMTQTTSSLSASLGDRVTISCRASQDISNYLNWYQQKPDGTVKLLIYYTSRLHSGVPSRFSGSGSGTDYSLTISNLEQEDIATYFCQQGNTLPYTFGGGTKLEIK
notes: as for B1
B5: SC16.47 (antibody, V domains shown)
VH: EVQLQQSGPELVKPGASVKISCKASGYSFSRFYMHWVKQSPENSLEWIGEINPSTGGTSYNQKFKGKATLTVDKSSSTAYMQLKSLTSEESAVYYCTRGYGSNCYFDVWGAGTTVTVST
VL: DVVLTQSPLSLPVNIGDQASISCKSTKSLLNSDGFTYLDWYLQRPGQSPQFLIYLVSNRFSGVPDRFSGSGSGTDFTLKISRVEAEDLGVYYCFQSNYLPLTFGAGTKLELR
notes: as for B1
B6: SC16.42 (antibody, V domains shown)
VH: QIQLVQSGPELKKPGETVKISCKASGYTFTTAGMQWVQKMPGKGFKWIGWINTHSGEPKYADDFKGRFAFSLETSASTAYLQISNLKDEDTATFFCAPLWSDSSFAYWGQGTLVTVSA
VL: DVLMTQSPLSLSVSLGDQASISCRSSQNIVHSDRYTYLEWYLQKPGQSPKLLIYGVSNRFSGVPDRFSGSGSGTDFTLKISRVEAEDMGVYYCFQGTHVPYTFGGGTKLEIK
notes: as for B1
B7: SC16.49 (antibody, V domains shown)
VH: QVQLQQSGPELVKPGTLVKISCKASGYTFTSYDINWVKQRPGQGLEWIGWIYPGDGNTKYSEKFKGKATLTADKSSSTAYMQLTSLTSENSAVYFCARDYDYPFAYWGQGTLVTVSA
VL: DIKMTQSPSSMYASLGERVTITCKASQDINSYLSWFQQKPGKSPKTLIYRANRLVDGVPSRFSGSGSGQDYSLTITSLEYEDMGIYYCLQYDEFPLTFGAGTKLELK
notes: as for B1
B8: SC16.38 (antibody, V domains shown)
VH: EVQLQQSGAELVKPGASVKLSCTVSGFNIKDTYIHWVKQRPEQGLEWIGRIDPANGNTKYDPKFQGKATITADTSSNTAYLQLSSLTSEDTAVYYCARPTGYFEYWGQGTTLTVSS
VL: QIVLTQSPAIMSASPGEKVTMTCSASSSINYMHWYQQKPGTSPKRWIYDTSKLASGVPARFSGSGSGTSYSLTISSMEAEDAATYYCHQRSTWTFGGGTKLEIK
notes: as for B1

Target: T1, human DLL3 (immobilized human DLL3 or …)
Assay: hybridoma screening on immobilized human DLL3 or on h293-hDLL3 cells

Binding result, binds:
B1
B2
B3
B4
B5
B6
B7
B8
